How the values were obtained:
[1] = molecular target: soluble hFcγRIIIa(F) (human) (UniProt P08637); assay: SPR, BIAcore 2000; shFcγRIIIa captured by anti-His antibody on CM5 chip; KA from the equilibrium value of the binding
[2] = molecular target: soluble hFcγRIIIa(V) (human) (UniProt P08637); assay: SPR, BIAcore 2000; end of the range tied to this antibody by Table 3 (0.48/0.28)
[3] = molecular target: soluble hFcγRIIIa(V) (human) (UniProt P08637); assay: SPR, BIAcore 2000; shFcγRIIIa captured by anti-His antibody on CM5 chip, antibody in flow (0.625 to 20 µg/ml)

Substance Rituxan™ (antibody) has a Ka [1] of 2.8e+06 M⁻¹, a fold higher KA for shFcγRIIIa(V) than for shFcγRIIIa(F) [2] of 2 to 3 times and a Ka [3] of 4.8e+06 M⁻¹. For the same substance, the koff [3] was 0.0071 s⁻¹ and the kon [3] was 34000 M⁻¹ s⁻¹.
